Laboratory results: patent publication US20140086913A1 (Gilead, published 2014)
Read-outs that look alike come from different tables or passages of the source.

Legend:
[1] = molecular target: DDR1 endogenously expressed on human cancer cell lines (T47D, HCT-116, A431) (human) (UniProt Q08345); experiment: flow cytometry, T47D cells
[2] = molecular target: T1, human ECD-DDR1-His protein (human, UniProt Q08345 21-416); experiment: ELISA, coated antigen, apparent KD
T1 construct: also called huDDR1-ECD-His; DDR1ECD-6Xhis; not shown: His tag
Method: (§1) In this study, ELISA was used to determine the affinity of murine anti-DDR1 monoclonal antibodies to the extracellular domain (ECD) of either human or murine DDR1. A 96-well MaxiSorb ELISA plates (Nunc) were coated with 2 μg/mL of one of three purified recombinant tagged proteins: human ECD-DDR1-His protein, human ECD-DDR1-Fc, or mouse ECD-DDR1-Fc overnight at 4° C. The next day, the plates were blocked with 5% bovine serum albumin (BSA, Jackson Immunoresearch) prior to the addition of serially diluted anti-DDR1 monoclonal antibodies. Antibodies were incubated for 1 hr at room temperature. The binding of antibody to the antigen was detected by incubating samples with anti-mouse IgG-HRP (horse radish peroxidase) secondary detection antibody (Jackson Immunoresearch) for 1 hr. After a washing step, 3,3′,5,5″-tetramethylbenzidine (TMB) reagent was added for HRP to produce a colorimetric signal. The reaction was stopped by addition of 1M hydrochloric acid after 2 minutes and measured for absorbance (optical density, OD) at 450λ on a Molecular Devices plate reader. The OD values were plotted against antibody concentration and fitted using a using 4-parameter logistic equation in SoftMax software (Molecular Devices). The apparent affinity constant (KD) was taken from the C-parameter of the equation (y=(A−D)/(1+(x/C)̂B)+D). The apparent affinity constants were summarized (in some cases shown as average values) in Table 10 below. Lower value indicates higher binding affinity of the antibody to the antigen.

[3] = molecular target: T2, DDR1ECD-Fc (R&D Systems, Catalog #2396-DR) (human, UniProt Q08345 21-416); experiment: ELISA, coated antigen, apparent KD
T2 construct: range 21-416; construct as described for the bought immunogen; also called human ECD-DDR1-Fc; Fc-ECD-DR1; not shown: human IgG1, Pro100-Lys330
Method: as §1

[4] = molecular target: DDR1 endogenously expressed on human cancer cell lines (T47D, HCT-116, A431) (human) (UniProt Q08345); experiment: cell-based or functional assay
[5] = molecular target: T3, mouse ECD-DDR1-Fc (mouse; human, UniProt Q03146 22-414); experiment: ELISA, coated antigen
T3 construct: also called mouse DDR1-ECD; wild-type mouse DDR1-ECD; not shown: human IgG1 Fc of the vector pFuse-hIgG1-Fc1 (Invivogen)
T3 sequence: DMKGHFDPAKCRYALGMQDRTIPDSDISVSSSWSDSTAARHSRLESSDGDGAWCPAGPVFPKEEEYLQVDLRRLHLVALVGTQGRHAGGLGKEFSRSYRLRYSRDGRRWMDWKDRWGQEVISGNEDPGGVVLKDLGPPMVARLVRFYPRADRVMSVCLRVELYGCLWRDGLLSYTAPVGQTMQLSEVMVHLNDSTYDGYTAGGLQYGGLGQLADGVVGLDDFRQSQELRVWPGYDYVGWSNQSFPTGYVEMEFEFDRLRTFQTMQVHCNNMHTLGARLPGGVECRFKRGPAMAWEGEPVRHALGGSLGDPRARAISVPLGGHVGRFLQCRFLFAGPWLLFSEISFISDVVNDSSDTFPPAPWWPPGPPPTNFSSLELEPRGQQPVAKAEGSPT
Method: as §1

[6] = molecular target: human DDR1 (isoform B) stably expressed on HEK293 cells (human) (UniProt Q08345); experiment: flow cytometry, HEK293/hDDR1
[7] = molecular target: DDR1 with a ProLink Tag (PK) in engineered U20S cells (DiscoveRx), Q08345; experiment: cell-based or functional assay
[8] = molecular target: T4, human DDR2 stably expressed on HEK293 cells (human, UniProt Q16832 22-855); experiment: flow cytometry, HEK293/hDDR2
T4 construct: whole, on cells; also called hDDR2
T4 sequence (looked up): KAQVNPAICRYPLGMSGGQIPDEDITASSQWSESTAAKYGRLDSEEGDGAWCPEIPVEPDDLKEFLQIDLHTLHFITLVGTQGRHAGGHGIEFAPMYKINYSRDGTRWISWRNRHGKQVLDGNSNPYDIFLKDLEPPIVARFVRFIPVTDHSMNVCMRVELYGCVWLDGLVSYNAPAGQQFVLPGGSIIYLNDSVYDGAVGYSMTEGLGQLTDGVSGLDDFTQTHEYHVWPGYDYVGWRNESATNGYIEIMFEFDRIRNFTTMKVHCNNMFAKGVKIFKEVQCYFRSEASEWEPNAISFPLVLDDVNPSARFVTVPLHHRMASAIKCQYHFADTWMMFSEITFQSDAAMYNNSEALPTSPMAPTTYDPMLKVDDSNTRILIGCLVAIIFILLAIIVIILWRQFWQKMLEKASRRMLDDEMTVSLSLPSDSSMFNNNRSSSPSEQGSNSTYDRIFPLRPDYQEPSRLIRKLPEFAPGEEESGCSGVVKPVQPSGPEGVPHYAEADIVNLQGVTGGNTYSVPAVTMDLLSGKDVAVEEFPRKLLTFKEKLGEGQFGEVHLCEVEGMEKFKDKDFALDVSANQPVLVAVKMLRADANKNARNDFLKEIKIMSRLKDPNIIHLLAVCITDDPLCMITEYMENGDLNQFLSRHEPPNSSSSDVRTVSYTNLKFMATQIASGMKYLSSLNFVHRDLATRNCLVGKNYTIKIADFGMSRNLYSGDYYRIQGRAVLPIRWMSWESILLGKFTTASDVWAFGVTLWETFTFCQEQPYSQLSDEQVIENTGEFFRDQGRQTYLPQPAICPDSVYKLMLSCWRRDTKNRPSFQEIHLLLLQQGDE
Method: Additional monoclonal antibodies were obtained from individual hybridomas in Example 1 and were characterized for their properties.
Cells were cultured in DMEM with 10% FBS and 0.8 mg/mL hygromycin. When cells reached 60-80% confluence, they were centrifuged at 1,200 rpm for 5 minutes, suspended in FACS buffer (1×PBS, 1% BSA), and aliquoted into a 96-well plate at 1×10⁶ cells per well. The anti-DDR1 monoclonal antibodies or appropriate isotype controls at 2 μg per 1×10⁶ cells were added and incubated at 4° C. for 1 hr. The cells were washed twice with FACS buffer then stained with the anti-IgG-PE secondary antibody at 10 μL per well at 4° C. for 1 hr. The cells were washed again and measured for the MFI values or signals using flow cytometry (LSR Fortessa instrument, BD Biosciences). Background MFI signals from vector-only cells (i.e. no DDR1 or DDR2 expression) was subtracted from those of the cells treated with antibodies. Higher MFI values or signals indicated increased binding or specificity of the anti-DDR1 antibodies to the DDR1 on the cell surface.

[9] = molecular target: DDR1 endogenously expressed on human cancer cell lines (T47D, HCT-116, A431) (human) (UniProt Q08345); experiment: flow cytometry, HCT116 cells
[10] = molecular target: T2, DDR1ECD-Fc (R&D Systems, Catalog …); experiment: ELISA
[11] = molecular target: human DDR1 (isoform B) stably expressed on HEK293 cells (human) (UniProt Q08345); experiment: flow cytometry, HEK293/human DDR1, normalized to empty-vector cells
[12] = molecular target: DDR1 endogenously expressed on human cancer cell lines (T47D, HCT-116, A431) (human) (UniProt Q08345); experiment: cell-based or functional assay; remark: listed apart in the source
[13] = molecular target: T3, mouse ECD-DDR1-Fc; experiment: ELISA, coated antigen, apparent KD
Method: as §1

human DDR1 (isoform B) stably expressed on HEK293 cells (human), sequence (Q08345 19-913): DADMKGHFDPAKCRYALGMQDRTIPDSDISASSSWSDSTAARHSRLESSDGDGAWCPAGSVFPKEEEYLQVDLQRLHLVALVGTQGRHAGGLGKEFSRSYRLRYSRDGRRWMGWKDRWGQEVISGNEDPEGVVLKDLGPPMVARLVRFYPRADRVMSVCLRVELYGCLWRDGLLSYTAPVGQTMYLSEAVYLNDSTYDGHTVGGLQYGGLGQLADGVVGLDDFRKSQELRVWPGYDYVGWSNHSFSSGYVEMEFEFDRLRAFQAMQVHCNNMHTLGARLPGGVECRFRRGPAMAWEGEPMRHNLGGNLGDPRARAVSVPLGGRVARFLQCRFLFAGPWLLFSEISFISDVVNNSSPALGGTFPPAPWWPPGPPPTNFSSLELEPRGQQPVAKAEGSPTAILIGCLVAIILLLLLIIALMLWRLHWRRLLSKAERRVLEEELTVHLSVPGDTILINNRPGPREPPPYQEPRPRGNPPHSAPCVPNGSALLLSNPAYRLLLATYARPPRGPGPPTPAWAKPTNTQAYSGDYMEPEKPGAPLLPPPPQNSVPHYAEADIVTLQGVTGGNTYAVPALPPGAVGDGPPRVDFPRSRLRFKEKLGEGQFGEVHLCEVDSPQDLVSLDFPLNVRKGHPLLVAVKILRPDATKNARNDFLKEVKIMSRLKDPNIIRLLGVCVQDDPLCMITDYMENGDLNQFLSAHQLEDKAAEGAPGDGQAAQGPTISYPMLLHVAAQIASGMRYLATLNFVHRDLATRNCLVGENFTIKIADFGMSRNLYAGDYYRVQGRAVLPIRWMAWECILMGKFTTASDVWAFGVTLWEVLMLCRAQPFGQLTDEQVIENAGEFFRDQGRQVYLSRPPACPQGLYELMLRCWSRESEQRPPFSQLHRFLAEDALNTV

B1: AB2021 (antibody, V domains shown)
VH: EVKLVESGGGLVKPGGSLNLSCAASGFTFSNYAMSWSRQTPEKRLEWVASISSGGNTYYPDSVRGRFTISRDNARNILYLQMSSLRSEDTAMYYCAREPGTYNWYFDVWGAGTTVTVSS
VL: DIVMTQSQKFMSTSVGDRVSVTCKASQNVGTNVAWYQQKPGQSLKALIYSASYRFSGVPDRFTGSGYGTDFTLTISNVQSEDLAEYFCQQCNSYPLTFGAGTKLELKR
notes: mouse hybridoma mAb
- MFI [1]: 5010 MFI
- Kd [2]: 0.153 nM
- Kd [3]: 0.252 nM
- EC50, DDR1 phospho-specific ELISA (T47D) [4]: 2.26 nM
- EC50, cluster formation assay (A431 cells) [4]: 18.5 nM
- Maximal inhibition, DDR1 phospho-specific ELISA (T47D) [4]: 100%
- NPI of cluster formation at 66 nM (A431 cells) [4]: 106%
- binding result [5]: no binding
- MFI [6]: 15800 MFI
- Mean EC50, DDR1 Tyr513 phosphorylation assay (U20S) [7]: 7.71 nM
- MFI [8]: 92 MFI
- MFI [9]: 1390 MFI

B2: AB2034 (antibody, V domains shown)
VH: QVQLKESGPGLVAPSQSLSITCTVSGFSLTSYHIHWVRQPPGKGLEWLVVIWSDGSTTYNSALKSRLSISKDNSKSQVFLKMNSLQTDDTAIYYCARTGNFYAMDYWGQGTSVTVSS
VL: SIVMTQTPKFLLVSAGDRVTITCKASQSVSNDVVWYQQKPGQSPKLLIYYASSRYTGVPDRFTGSGYGTDFTFTISTVQAEDLAVYFCQQDYSSPYTFGGGTKLEIR
notes: mouse hybridoma mAb
- MFI [1]: 4370 MFI
- Kd [2]: 0.311 nM
- Kd [3]: 0.256 nM
- EC50, DDR1 phospho-specific ELISA (T47D) [4]: 0.63 nM
- EC50, cluster formation assay (A431 cells) [4]: 7.87 nM
- Maximal inhibition, DDR1 phospho-specific ELISA (T47D) [4]: 100%
- NPI of cluster formation at 66 nM (A431 cells) [4]: 119%
- binding result [5]: no binding
- MFI [6]: 11400 MFI
- Mean EC50, DDR1 Tyr513 phosphorylation assay (U20S) [7]: 5.2 nM
- MFI [8]: 175 MFI
- MFI [9]: 1060 MFI

B3: AB2009 (antibody, V domains shown)
VH: EVQLVESGGGLVQPGGSLKFSCAASGFTFSSYGMSWVRQTPDKRLELVAIINSHGFSTYYPDSVKGRFTISRDNAKNTLYLQMSSLKSEDTAIYYCARGGYGNYGMDYWGQGTSVTVSS
VL: DIVLTQSPASLAVSLGQRATISCRASESVDSYGNSFMHWYQQKVGQPPKLLIFRASNIESGIPARFSGSGSRTDFTLTINSVEADDVATYYCQQSNEAPYTFGGGTKLEIKR
notes: mouse hybridoma mAb
- Kd [10]: 0.257 nM
- MFI [11]: 11900 MFI
- EC50, DDR1 phospho-specific ELISA (T47D) [12]: 0.47 nM
- EC50, cluster formation assay (A431 cells) [12]: 0.43 nM
- Maximal inhibition, DDR1 phospho-specific ELISA (T47D) [12]: 100%
- NPI of cluster formation at 66 nM (A431 cells) [12]: 127%
- MFI [1]: 5930 MFI
- Kd [2]: 0.197 nM
- Kd [3]: 0.257 nM
- Kd [13]: 6.93 nM
- MFI [6]: 11900 MFI
- Mean EC50, DDR1 Tyr513 phosphorylation assay (U20S) [7]: 1.5 nM
- MFI [8]: 277 MFI
- MFI [9]: 1480 MFI

B4: AB2029 (antibody, V domains shown)
VH: QVLLRQSGPGLVQPSQSLSITCTVSGFSLTTYGVHWVRQSPGKGLEWLGVIWSGGSTDYNAAFISRLTISKDNSKSQVFFKMNSLQANDTAIYYCARYYSGSSLYFAMDYWGQGTSVTVSS
VL: NIVMTQTPKFLLVSAGDTVTITCKASQSVSNDVAWYQQKPGQSPKLLIYYASNRYTGVPDRFTGSGFGTDFTFTISTVQTEDLAVYFCQQDYSSLTFGAGTKLELKR
notes: mouse hybridoma mAb
- MFI [1]: 3560 MFI
- Kd [2]: 0.397 nM
- Kd [3]: 0.302 nM
- EC50, DDR1 phospho-specific ELISA (T47D) [4]: 0.55 nM
- Maximal inhibition, DDR1 phospho-specific ELISA (T47D) [4]: 100%
- NPI of cluster formation at 66 nM (A431 cells) [4]: 100%
- binding result [5]: no binding
- MFI [6]: 11700 MFI
- Mean EC50, DDR1 Tyr513 phosphorylation assay (U20S) [7]: 4.9 nM
- MFI [8]: 263 MFI
- MFI [9]: 1010 MFI

B5: AB2065 (antibody, V domains shown)
VH: EVMLVESGGGLVKPGGSLKLSCAASGFTFSNYAMSWVRQTPEKRLEWVAKTSSGDTYTYYPDSVKGRFTISRDNAKNTLYLQMTSLRSEDTAIYYCARQDYYGITPWFFDVWGAGTTVTVSS
VL: ENVLTQSPAIMSASPGEKVTMTCRASSSVSSIYLHWYQQKSGASPKLWIYSTSNLASGVPARFSGSGSGTSYSLTITSVEAEDAATYYCQQYSGYPLITFGAGTKLELKR
notes: mouse hybridoma mAb
- EC50, DDR1 phospho-specific ELISA (T47D) [12]: 0.35 nM
- Maximal inhibition, DDR1 phospho-specific ELISA (T47D) [12]: 100%
- NPI of cluster formation at 66 nM (A431 cells) [12]: 15.8%
- MFI [1]: 4400 MFI
- Kd [2]: 0.197 nM
- Kd [3]: 0.234 nM
- binding result [5]: no binding
- MFI [6]: 3560 MFI
- Mean EC50, DDR1 Tyr513 phosphorylation assay (U20S) [7]: 25.7 nM
- MFI [8]: 353 MFI
- MFI [9]: 2480 MFI

B6: AB2079 (antibody, V domains shown)
VH: EVMLVESGGGLVKPGGSLKLSCAASGFTFSNYAMSWVRQTPEKRLEWVAKTSSGDTYTYYPDSVKGRFTISRDNAKNTLYLQMTSLRSEDTAIYYCARQDYYGITPWFFDVWGAGTTVTVSS
VL: ENVLTQSPAIMSASPGEKVTMTCRASSSVSSIYLHWYQQKSGASPKLWIYSTSNLASGVPARFSGSGSGTSYSLTITSVEAEDAATYYCQQYSGYPLITFGAGTKLELKR
notes: mouse hybridoma mAb
- Kd [10]: 0.088 nM
- MFI [11]: 14300 MFI
- EC50, DDR1 phospho-specific ELISA (T47D) [12]: 0.13 nM
- NPI of cluster formation at 66 nM (A431 cells) [12]: 0.5%
- MFI [1]: 6130 MFI
- Kd [2]: 0.07 nM
- Kd [3]: 0.0883 nM
- binding result [5]: no binding
- MFI [6]: 14300 MFI
- MFI [8]: 326 MFI
- MFI [9]: 1730 MFI
